Experimental data from patent US20260078341A1, “TREATMENT OF CANCER USING CHIMERIC ANTIGEN RECEPTOR” (Novartis AG, priority 2014, published 2026).

Target: Folate receptor alpha on cells (SKOV3, A1847, T47D; low levels on 293T and IOSE6) (human) (UniProt P15328)
Assay: cell-based or functional assay

Sequence of Folate receptor alpha on cells (SKOV3, A1847, T47D; low levels on 293T and IOSE6) (human) (P15328 25-234, stated change not applied): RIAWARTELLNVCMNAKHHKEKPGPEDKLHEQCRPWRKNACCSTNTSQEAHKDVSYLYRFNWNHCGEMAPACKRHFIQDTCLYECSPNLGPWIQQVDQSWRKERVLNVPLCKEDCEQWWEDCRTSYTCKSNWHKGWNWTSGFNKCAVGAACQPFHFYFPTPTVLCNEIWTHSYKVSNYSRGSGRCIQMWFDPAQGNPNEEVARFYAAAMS

MOv19-27z CAR (murine anti-human FRA MOv19 CAR)
frequency of T cells with surface CAR before exposure to SKOV3 tumor cells: 65 % of T cells | frequency of T cells with surface CAR five hours after exposure to SKOV3 tumor cells: 1 % of T cells
